Data on two molecules can be found in patent publication US20210395340A1 (KINDRED BIOSCIENCES, published 2021).

For assay [1], the target named is T1, canine IL13 with C-terminal poly-His tag (produced in 293 cells) (canine, UniProt Q9N0W9 19-131).
T1 sequence: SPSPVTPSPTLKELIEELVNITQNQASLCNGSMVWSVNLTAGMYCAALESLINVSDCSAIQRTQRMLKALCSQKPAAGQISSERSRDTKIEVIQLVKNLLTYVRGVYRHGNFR
The assay is described as follows: BLI (Octet). (Biolayer interferometry detects binding as a change in optical thickness at a sensor tip.)

The target in assay [2] is T2, canine IL4 (Sino Biological Inc, Cat #70021-DNAE-5) (canine, UniProt O77762 25-132, limits assumed).
T2 sequence (looked up): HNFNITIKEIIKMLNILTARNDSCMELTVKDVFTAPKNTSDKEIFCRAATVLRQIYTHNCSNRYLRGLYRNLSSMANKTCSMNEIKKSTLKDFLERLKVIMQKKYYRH
The assay is described as follows: cell-based or functional assay.

B1: canine IL13RECD-IL4RECD-IgGB Fc (Fc fusion)
chain: TETQPPVTNLSVSVENLCTVIWTWDPPEGASPNCTLRYFSHFDNKQDKKIAPETHRSKEVPLNERICLQVGSQCSTNESDNPSILVEKCTPPPEGDPESAVTELQCVWHNLSYMKCTWLPGRNTSPDTNYTLYYWHSSLGKILQCEDIYREGQHIGCSFALTNLKDSSFEQHSVQIVVKDNAGKIRPSFNIVPLTSHVKPDPPHIKRLFFQNGNLYVQWKNPQNFYSRCLSYQVEVNNSQTETNDIFYVEEAKCQNSEFEGNLEGTICFMVPGVLPDTLNTVRIRVRTNKLCYEDDKLWSNWSQAMSIGENTDPTGGGSGSGSVKVLHEPSCFSDYISTSVCQWKMDHPTNCSAELRLSYQLDFMGSENHTCVPENREDSVCVCSMPIDDAVEADVYQLDLWAGQQLLWSGSFQPSKHVKPRTPGNLTVHPNISHTWLLMWTNPYPTENHLHSELTYMVNVSNDNDPEDFKVYNVTYMGPTLRLAASTLKSGASYSARVRAWAQTYNSTWSDWSPSTTWLNYYEPKRENGRVPRPPDCPKCPAPEMLGGPSVFIFPPKPKDTLLIARTPEVTCVVVDLDPEDPEVQISWFVDGKQMQTAKTQPREEQFNGTYRVVSVLPIGHQDWLKGKQFTCKVNNKALPSPIERTISKARGQAHQPSVYVLPPSREELSKNTVSLTCLIKDFFPPDIDVEWQSNGQQEPESKYRTTPPQLDEDGSYFLYSKLSVDKSRWQRGDTFICAVMHEALHNHYTQESLSHSPGK
notes: also called canine IL13RECD-IL4RECD-Fc; IL13R ECD/IL4R ECD contiguous polypeptide
Regarding B1, the binding result in assay [1] is given as “binds”.

B2: canine IL4RECD-IL13RECD-IgGB Fc (Fc fusion)
chain: SGSVKVLHEPSCFSDYISTSVCQWKMDHPTNCSAELRLSYQLDFMGSENHTCVPENREDSVCVCSMPIDDAVEADVYQLDLWAGQQLLWSGSFQPSKHVKPRTPGNLTVHPNISHTWLLMWTNPYPTENHLHSELTYMVNVSNDNDPEDFKVYNVTYMGPTLRLAASTLKSGASYSARVRAWAQTYNSTWSDWSPSTTWLNYYEPGGGSGTETQPPVTNLSVSVENLCTVIWTWDPPEGASPNCTLRYFSHFDNKQDKKIAPETHRSKEVPLNERICLQVGSQCSTNESDNPSILVEKCTPPPEGDPESAVTELQCVWHNLSYMKCTWLPGRNTSPDTNYTLYYWHSSLGKILQCEDIYREGQHIGCSFALTNLKDSSFEQHSVQIVVKDNAGKIRPSFNIVPLTSHVKPDPPHIKRLFFQNGNLYVQWKNPQNFYSRCLSYQVEVNNSQTETNDIFYVEEAKCQNSEFEGNLEGTICFMVPGVLPDTLNTVRIRVRTNKLCYEDDKLWSNWSQAMSIGENTDPTPKRENGRVPRPPDCPKCPAPEMLGGPSVFIFPPKPKDTLLIARTPEVTCVVVDLDPEDPEVQISWFVDGKQMQTAKTQPREEQFNGTYRVVSVLPIGHQDWLKGKQFTCKVNNKALPSPIERTISKARGQAHQPSVYVLPPSREELSKNTVSLTCLIKDFFPPDIDVEWQSNGQQEPESKYRTTPPQLDEDGSYFLYSKLSVDKSRWQRGDTFICAVMHEALHNHYTQESLSHSPGK
notes: The IL4R ECD precedes the IL13R ECD, followed by canine IgG-B Fc; also called canine IL4RECD-IL13RECD-Fc; SINK
Consider B2, for which, in assay [1], the binding result is recorded as “binds”. Also, the “TF1 cell proliferation assay (CellTiter-Glo luminescence), IC50” value in assay [2] was determined as 2 nM.
